Measured values as given in the supplement of paper PMC9170038.

Tested on: MS2 coat protein
Assay: apparent KD of MS2 coat protein; designed switch direction (-1 OFF switch, 1 ON switch): -1; higher = weaker reporter binding
Outline: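 Stalled E. coli RNA polymerase transcribed designed RNA switches on Illumina chips, which were then titrated with SNAP-549-labelled MS2 coat protein, doubling from 0.7 or 1.5 nM to 3 µM. Steps lasted from 0.8–1.5 h at the lowest concentration to 10–20 min at the highest. The apparent KD is each design's median over clusters of curve-fitted normalised fluorescence.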

[1] = input ligand: microRNA oligo, concentration not stated
[2] = Eterna round: R95, input ligand: microRNA oligo, concentration not stated
[3] = Eterna round: R95, input ligand: FMN 200 uM
[4] = Eterna round: R95, input ligand: none

Row | Sequence | apparent KD of MS2 coat protein (input ligand: FMN 200 uM) [nM] | apparent KD of MS2 coat protein [1] [nM] | apparent KD of MS2 coat protein (input ligand: none) [nM] | apparent KD of MS2 coat protein [2] [nM] | apparent KD of MS2 coat protein [3] [nM] | apparent KD of MS2 coat protein [4] [nM]
1 | AGAGGACAUGAGGAUCACCCAUGUAAGGAUAUGCGGAGAGUUUGGAGAGGUCGGGUAGGCAGAAGGUACAGGAG [JR_Exclu1_Sub050] (Eterna round: R96, puzzle: Exclusion 1) | 48 | 41 | 86.4 | – | – | –
2 | CACCGUUACGUAGGAUAUGUUACAUGAGGAUCACCCAUGUAAUAAAUGAGAAUUUCGAAUGUAAUACAGAAGGACGGAAUCGGC [Ostracism 70 - Jieux - Exclusion NG 2] (Eterna round: R96, puzzle: Exclusion NG 2) | 53.3 | 26 | 32 | – | – | –
3 | GGAUCGAGUGUGAGGAUAUACCUAUGGAUACAUAGGUAGAAGGCACAUGAGGAUCACCCAUGUUCCAACGGUCC [Eli bmx4 4.11] (Eterna round: R97, puzzle: Brourd's mod of Exclusion 4) | 817 | – | 108 | – | – | –
4 | AAGUGGAAAACACAAUUGUACAUGAGGAUCACCCAUGUAUGUACGAAAUAUAGACAAGCUGUAUGCUCGACAACACA [Sensor v2 M17] (Eterna round: R96, puzzle: Sensor v2, turn-off variant) | 36.3 | 18.3 | 37 | – | – | –
5 | GUGGGUUAUGUCAGGAUAUGGCCGUUAGGGCGACGCCAGAAGGGACAUGAGGAUCACCCAUGUCUCCGGGCAUC [BmEX4 C.10] (Eterna round: R97, puzzle: Brourd's mod of Exclusion 4) | 15.1 | – | 14.8 | – | – | –
6 | GUCAGCUCGUGAGGAUAUAUAUACAUGAGGAUCACCCAUGUAAGAUCAGGCUUCGGCCAAUGUAUAUAGAAGGCACGAGCUGAC [ENG2/11-A1] (Eterna round: R96, puzzle: Exclusion NG 2) | 1350 | 1510 | 636 | – | – | –
7 | AAGCAUUGCCAAAGGUAGUGCUUAACAUGAGGAUCACCCAUGUAGGAUAUGGUAGGCAAAGCUUACCAGAAGGACAUGAUAAUU [Mat - Exclusion NG 3 - Mod of JL - D14] (Eterna round: R96, puzzle: Exclusion NG 3) | 430 | 61.5 | 70.8 | – | – | –
8 | AAUAACAAGCCGAUCCUUUACAUGAGGAUCACCCAUGUGCUCGUCUUGUAAAGUACUAUCACGAAAGUGAUAGUACA (Eterna round: R97, puzzle: Sensor, turn-off variant 1) | 28 | – | 27 | – | – | –
9 | UUUGUGUCAGGAUAUGAGUAGUAGAACAAUAGUACUACUACUCAGAAGGGACAUGAGGAUCACCCAUGUUCCUC [Fiskers Ex 4 Super stable 44 mod 21] (puzzle: Exclusion 4) | – | – | – | 19 | – | –
10 | AUUAACUUAGGAUAUACAUGAGGAUCACCCAUGUCCCACCCGUUACCCAUGACCAUAUGUAGAAGGAAGAAGAA [Exy#9] (Eterna round: R97, puzzle: Exclusion 3) | 32.2 | – | 39.5 | – | – | –
11 | GCAGAAUGAGUUAGGAUAUGAUGAUUUUUCGGAUAUCAGAAGGAACUUGAGGAUCACCCAAGUUAAGAUAGGGU [JR_BMEx4_Sub066] (Eterna round: R97, puzzle: Brourd's mod of Exclusion 4) | 258 | – | 170 | – | – | –
12 | AAUAACAGAGGAUAUACUGUUUUAUGUGUUUAUUAUUUUGAACAUGAGGAUCACCCAUGUAGAAGGCUGAAUAA [JMF 21] (puzzle: Exclusion 2) | – | – | – | 22.2 | – | –
13 | AGUAGUAGUAUCCGAUCUUACAUGAGGAUCACCCAUGUAUCUAGACGUGCACGCGAUGCUCGUCAGACUACCAGAUG [salish99_TOv1_r3_052] (puzzle: Sensor v3, turn-off variant 1) | – | – | – | 66.3 | 49.3 | 60.1
14 | AGAUGCUCAAGUCGACAUGAGGAUCACCCAUGUACAGUUAAUGAGGAUAUCUGAGACAAAUAGUAGGAGAAGGCGUGAACAUGA [Ex NG3 #10] (Eterna round: R96, puzzle: Exclusion NG 3) | 55.2 | 26.5 | 57.6 | – | – | –
15 | AUACCACGAGGAUAUCGUCUAUUUCACAUGAGGAUCACCCAUGUUAUCUUUGUUUUGUUUCGAGAAGGCGUGUUUU [JR_E5_Sub078] (puzzle: Exclusion 5) | – | – | – | 28.1 | – | –
16 | UGUGCGUCAGGAUAUUCUACUUAUUACAUGAGGAUCACCCAUGUGAAUGUACAAGGGUGUGAAGAAGGGACUUGUC [LRO-Excl5-05-mod A17d by Omei] (Eterna round: R97, puzzle: Exclusion 5) | 194 | – | 798 | – | – | –
17 | GGUUGACAUGAGGAUCACCCAUGUGAGGAUAUGCGAGAGAAAAAAGUGAGGAAGGUUUGCAGAAGGCGCUGUCG [salish99-ex1_r3_008] (puzzle: Exclusion 1) | – | – | – | 115 | 50.2 | 81.2

Row | Sequence | apparent KD of MS2 coat protein (input ligand: FMN 200 uM) [nM] | apparent KD of MS2 coat protein [1] [nM] | apparent KD of MS2 coat protein (input ligand: none) [nM] | apparent KD of MS2 coat protein [2] [nM] | apparent KD of MS2 coat protein [3] [nM] | apparent KD of MS2 coat protein [4] [nM]
18 | GGGUGACAUGAGGAUCACCCAUGUCAGGAUAUUGAUCGUGAUCGGAAAUGAUCGUGAUCGAGAAGGGACUGCCC [-27.4, -26.4 kcal, A 27% sequence 2] (Eterna round: R97, puzzle: Exclusion 1) | 224 | – | 52 | – | – | –
19 | CUAAAUCAUGUAGGAUAUGCGUGGCGAAGCUAUGCAGAAGGACAUGAGGAUCACCCAUGUGCUUCCGUCUGCGUACAGACGGAA [JL ENG1 1.17] (Eterna round: R96, puzzle: Exclusion NG 1) | 328 | 222 | 255 | – | – | –
20 | AUGAGGUUAGGAUAUACAUGAGGAUCACCCAUGUUGGAGAAGGAAGUGUAAGUAGCGAGUAGAAGGAACGGAGC [JR_Exclu3_Sub060] (puzzle: Exclusion 3) | – | – | – | 51.1 | 37.5 | 48.4
21 | AGAGCACAUGAGGAUCACCCAUGUCAGGAUAUCGACUGAACAGCUUCGGCUGUUCAGUCGAGAAGGGACAAUUA [Brourdxlusion 7 - Jieux - Exclusion 1] (Eterna round: R97, puzzle: Exclusion 1) | 19.4 | – | 35 | – | – | –
22 | GCCGAUUAAGUGAGGAUAUACCUAUGGAUACAUAGGUAGAAGGCACAUGAGGAUCACCCAUGUUCCUCAUCGGC [Fiskers BMX 4 - 11] (Eterna round: R96, puzzle: Brourd's mod of Exclusion 4) | 155 | 16.5 | 21.3 | – | – | –
23 | GCAGGUUAAGUCAGGAUAUACCUAUGGAUACAUAGGUAGAAGGGACAUGAGGAUCACCCAUGUGCCUCACCUGC [Mod of Eli - Jieux - Brourd's mod of Exclusion 4] (Eterna round: R97, puzzle: Brourd's mod of Exclusion 4) | 109 | – | 26.1 | – | – | –
24 | GGCCCGCGCGGGCCCGGGCCCGGGACAUGAGGAUCACCCAUGUAGGAUAUCCGGCCCGCCGGGCCGGAGAAGGACAUGGGCCCG [-48.9, -45.2 kcal, 17% A] (Eterna round: R96, puzzle: Exclusion NG 3) | 34.1 | 11.1 | 16.9 | – | – | –
25 | ACGAAACAUGAGGAUCACCCAUGUGAGGAUAUUAUGUUAUAAUACAUACUAUACAUAUUAAGAAGGCACAUUGG [Design #12] (Eterna round: R97, puzzle: Exclusion 1) | 138 | – | 74.6 | – | – | –
26 | GAGAAGGUAGGAUAUACGAAGAAAGAGGGUAGGAAGAAGACACAUGAGGAUCACCCAUGUAGAAGGACCAAGAG [Mat - Exclusion 2 - Mod of my Tesla design - D48] (puzzle: Exclusion 2) | – | – | – | 13.9 | 27.1 | 14.1
27 | AGUCUGCUAGGAUAUACAUGAGGAUCACCCAUGUCUAUCAAUAGACUAUUAACCUGGUGUAGAAGGAGCUUGUA [Onatlacein] (puzzle: Exclusion 3) | – | – | – | 11.1 | – | –
28 | UACAUGAGGAUCACCCAUGUUUUGUCGUGUAUGGUAUUUAUCUAGGAUAUCAUGUUAUUUAGUUAUGAGAAGGAGAAUAUUAAU [JMF's solution 81] (Eterna round: R96, puzzle: Exclusion NG 3) | 45.6 | 31.3 | 38.5 | – | – | –
29 | AAUUAGUCAGGAUAUACAUGAGGAUCACCCAUGUAAACUUUUAGUUUAAUUUGAAUGUGUAGAAGGGACAUUAA [Ex3 #48] (Eterna round: R97, puzzle: Exclusion 3) | 25.4 | – | 29.7 | – | – | –
30 | UUUCAACAUGAGGAUCACCCAUGUGAGGAUAUGAUGCAGCAGUGGUCUACGCUGUGCAUCAGAAGGCACAUGUG (puzzle: Exclusion 1) | – | – | – | 130 | – | –
31 | CUUGAAUAAGUGAGGAUAUACUGUUAGUAAUGAUUGUAGAAGGUACAUGAGGAUCACCCAUGUUUAUUCAUAAU [JR_BME4_Sub041] (puzzle: Brourd's mod of Exclusion 4) | – | – | – | 17.5 | – | –
32 | GGCGGUGCAGGAUAUUGAAAACUACACAUGAGGAUCACCCAUGUUCCUCACCGGUACAAGCAAGAAGGGCGGUGCA [Erxegetiis] (puzzle: Exclusion 5) | – | – | – | 19.4 | 18.9 | 18.3
33 | AGAGAAUAGUCAGGAUAUCUUAAUAGAAAGAAUAGAGAAGGGACACAUGAGGAUCACCCAUGUGAAGUCUUGAGACUACAUGGU [Prohibition 30 - Jieux - Exclusion NG 1] (Eterna round: R96, puzzle: Exclusion NG 1) | 108 | 27.4 | 35.3 | – | – | –
